# B1: Exo-β-N-acetylmuramidase NamZ of Bacillus subtilis 168, recombinant, C-terminal His6-tag fusion protein (enzyme)
# chain: SPDSKNQTAKKPKVQTGIDTLLPDYKKQLKGKRIGLITNPAGVNTSLKSSVDILYENPDIKLTALFGPEHGVRGDAQAGDEVGSYIDEKTGVPVYSLYGKTKKPTPEMLKNVDILMFDIQDVGTRFYTYIYTMAYAMEAAKENGIPFMVLDRPNPQGGNHIEGPILEPEYASFVGLYPIPLKHGMTIGELASLFNKEFSIDADLTVVKMKHWKRKMDFDDTRLPFVLPSPNMPTVESTFVYPATGLIEGTNISEGRGTTKPFELIGAPFIKSTELEETLNSLHLPGVTFRAASFTPTFSKHQGTLCHGVQLYVTDRDKFEAVKTGLSVIKTIHDLYPEDFEFLSTGSFDKLAGNGWIRTKIENGTSVENIINSYEKTLQQFSKTRKKYLIY
# Biological target: the molecule itself
# Experiment: SEC-MALS
protein,measurement,value
B1,stoichiometry N,2
